Results: publication PMC5418926, “A Functional Role for the Monomethylated Gln-51 and Lys-53 Residues of the 49GGQTK53 Motif of eL42 from Human 80S Ribosomes” (The Open Biochemistry Journal, 2017)

Target: human recombinant eL42-Δ(GGQTK) variant, His-tagged (human, UniProt P83881 1-106, Δ(GGQTK), residues 49-GGQTK-53 deleted)
Assay: SPR; Biacore 3000; His-tagged eL42 species immobilised by amine coupling on a CM5 chip; eRF1 or EF-3 as analyte; 25°C, HBS-EP (10 mM HEPES pH 7.4, 150 mM NaCl, 3 mM EDTA, 0.005% P20), 5 µL/min; 1:1 Langmuir fit; mean of 3 experiments
Conditions: both partners purified

Kd: 9.2 µM
B1: elongation factor 3 (EF-3) from S. cerevisiae, His-tagged (natural protein, UniProt P16521 1-1044, looked up)
chain: MSDSQQSIKVLEELFQKLSVATADNRHEIASEVASFLNGNIIEHDVPEHFFGELAKGIKDKKTAANAMQAVAHIANQSNLSPSVEPYIVQLVPAICTNAGNKDKEIQSVASETLISIVNAVNPVAIKALLPHLTNAIVETNKWQEKIAILAAISAMVDAAKDQVALRMPELIPVLSETMWDTKKEVKAAATAAMTKATETVDNKDIERFIPSLIQCIADPTEVPETVHLLGATTFVAEVTPATLSIMVPLLSRGLNERETGIKRKSAVIIDNMCKLVEDPQVIAPFLGKLLPGLKSNFATIADPEAREVTLRALKTLRRVGNVGEDDAIPEVSHAGDVSTTLQVVNELLKDETVAPRFKIVVEYIAAIGADLIDERIIDQQAWFTHITPYMTIFLHEKKAKDILDEFRKRAVDNIPVGPNFDDEEDEGEDLCNCEFSLAYGAKILLNKTQLRLKRARRYGICGPNGCGKSTLMRAIANGQVDGFPTQEECRTVYVEHDIDGTHSDTSVLDFVFESGVGTKEAIKDKLIEFGFTDEMIAMPISALSGGWKMKLALARAVLRNADILLLDEPTNHLDTVNVAWLVNYLNTCGITSITISHDSVFLDNVCEYIINYEGLKLRKYKGNFTEFVKKCPAAKAYEELSNTDLEFKFPEPGYLEGVKTKQKAIVKVTNMEFQYPGTSKPQITDINFQCSLSSRIAVIGPNGAGKSTLINVLTGELLPTSGEVYTHENCRIAYIKQHAFAHIESHLDKTPSEYIQWRFQTGEDRETMDRANRQINENDAEAMNKIFKIEGTPRRIAGIHSRRKFKNTYEYECSFLLGENIGMKSERWVPMMSVDNAWIPRGELVESHSKMVAEVDMKEALASGQFRPLTRKEIEEHCSMLGLDPEIVSHSRIRGLSGGQKVKLVLAAGTWQRPHLIVLDEPTNYLDRDSLGALSKALKEFEGGVIIITHSAEFTKNLTEEVWAVKDGRMTPSGHNWVSGQGAGPRIEKKEDEEDKFDAMGNKIAGGKKKKKLSSAELRKKKKERMKKKKELGDAYVSSDEEF
notes: S. cerevisiae elongation factor 3; The expression strain was a gift of Maria Mateyak; also called eEF-3; yeast EF-3; source: E. coli TKBL40 (BL21, His-tagged eEF-3 in pET11a), purified (His GraviTrap)
